Patent US20250136677A1 (ZOETIS SERVICES, published 2025)

Tests used:
[1] = molecular target: T1, equine IL-31 protein (Equine_IL31) (equine); assay: SPR (Biacore), IL-31 surface, single antibody concentration
T1 construct: Recombinant equine IL-31
T1 chain: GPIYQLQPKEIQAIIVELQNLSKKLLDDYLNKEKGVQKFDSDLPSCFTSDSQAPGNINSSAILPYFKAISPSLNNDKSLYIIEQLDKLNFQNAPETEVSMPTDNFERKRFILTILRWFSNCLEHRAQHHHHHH
Description: (§1) For the indirect ELISA method, antibody binding to wildtype and feline IL-31 15H05 mutant proteins was assessed. All nine canine monoclonal antibodies (ZIL1, ZIL8, ZIL8, ZIL11, ZIL69, ZIL94, ZIL154, ZIL159, and ZIL171) were capable of binding to wildtype feline IL-31 and binding was impacted by mutations in the mAb 15H05 epitope region confirming the correct binding phenotype determined during the initial screening used to identify them. In comparison, the 11E12 antibody bound to the wild-type feline IL-31 and its binding was not impacted by the mutations in the 15H05 epitope region as evidenced by the data in FIG. 4. To confirm binding, biacore analysis was performed using canine, feline, equine, human, feline 15H05 mutant, and feline 11E12 mutant IL-31 proteins as surfaces and a single test concentration of antibody. Similar to ELISA observations, all antibodies tested bound to wildtype feline IL-31. In agreement with the data described above in this section, mouse antibodies 11E12 and 15H05 both bound to canine and feline IL-31 surfaces. Three additional antibodies where shown to have this dual binding property, ZIL69 (partial canine binding), ZIL94, and ZIL159. From this group of nine fully canine antibodies, only ZIL1 and ZIL9 cross-reacted with equine IL-31. Of note, antibody 15H05 was the only one of all assayed herein that bound to canine, feline, and equine IL-31 indicating some level of epitope conservation across the three species. In contrast, none of the antibodies described herein bound to human IL-31. Additional biacore surfaces were used to verify ELISA observations showing differential binding of antibodies to wildtype feline IL-31 and two proteins with mutations in the 15H05 (15H05 mutant) or 11E12 (11E12 mutant) epitopes.

[2] = molecular target: T2, mutant feline IL-31 15H05 protein (Feline_IL31_15H05_mutant) (feline); assay: indirect ELISA, IL-31 protein coated
T2 sequence: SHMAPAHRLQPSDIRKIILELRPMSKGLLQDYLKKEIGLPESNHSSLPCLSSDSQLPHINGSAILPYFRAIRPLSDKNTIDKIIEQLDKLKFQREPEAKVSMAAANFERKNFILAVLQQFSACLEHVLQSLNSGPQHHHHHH

[3] = molecular target: T3, wildtype feline IL-31 protein (Feline_IL31_wildtype) (feline); assay: SPR (Biacore), IL-31 on chip, 1:1 fit
T3 construct: Full length feline IL-31 with C-terminal His tag, secreted from ExpiCHO cells; also called fIL-31
T3 chain: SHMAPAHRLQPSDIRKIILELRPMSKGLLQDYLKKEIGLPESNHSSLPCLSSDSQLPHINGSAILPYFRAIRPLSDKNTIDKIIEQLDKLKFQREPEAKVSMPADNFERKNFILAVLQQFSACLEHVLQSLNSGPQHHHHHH
Description: The affinity with which candidate mAbs bind canine and feline IL-31 was determined using surface plasmon resonance (SPR) on a Biacore system (Biocore Life Sciences (GE Healthcare), Uppsala, Sweden). To avoid affinity differences associated with differential surface preparation that can occur when immobilizing antibodies to surfaces; a strategy was employed where IL-31 was directly conjugated to the surface. Immobilization was obtained by amine coupling 5 μg/mL IL-31 using N-hydroxysuccinimide (NHS)/1-Ethyl-3-(3-dimethylaminopropyl) carbodiimide (EDC) chemistry. Chips were quenched with ethanolamine and the affinity with which all candidate mAbs bound to the immobilized IL-31 was evaluated. All curves were fit to a 1:1 model. […] Results for affinity measurements are described herein.

[4] = molecular target: T4, canine IL-31 protein (Canine_IL31) (canine); assay: SPR (Biacore), IL-31 on chip, 1:1 fit
T4 chain: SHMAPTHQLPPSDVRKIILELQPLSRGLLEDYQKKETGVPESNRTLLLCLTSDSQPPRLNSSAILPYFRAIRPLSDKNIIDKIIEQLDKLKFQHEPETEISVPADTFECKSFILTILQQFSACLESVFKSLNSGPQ

[5] = molecular target: T3, wildtype feline IL-31 protein …; assay: cell-based or functional assay
[6] = molecular target: T4, canine IL-31 protein (Canine_IL31); assay: cell-based or functional assay
[7] = molecular target: T3, wildtype feline IL-31 protein …; assay: cell-based or functional assay
human IL-31 = molecular target: T5, human IL-31 (human, UniProt Q6EBC2 24-164); assay: SPR (Biacore), IL-31 surface, single antibody concentration
T5 sequence: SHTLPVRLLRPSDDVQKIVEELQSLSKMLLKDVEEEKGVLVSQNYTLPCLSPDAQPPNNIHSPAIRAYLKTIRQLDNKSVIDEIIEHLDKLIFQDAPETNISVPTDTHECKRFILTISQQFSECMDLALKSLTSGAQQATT
Description: as §1

B1: ZIL69 (recombinant fully canine antibody) (antibody, V domains shown)
VH: EVQLVESGGDLVKPAGSLRLSCVASGFTFSSYAMKWVRQAPGKGLQWVATINNDGTRTGYADAVRGRFTISKDNAKNTLYLQMDSLRADDTAVYYCTKGNAESGCTGDHCPPYWGQGTLVTVSS
VL: SSVLTQPPSVSVSLGQTATISCSGESLNKYYAQWFQQKAGQAPVLVIYKDTERPSGIPDRFSGSSAGNTHTLTISGARAEDEADYYCESAVSSETNVFGSGTQLTVLR
notes: also called CAN-ZIL69
binding result [1]: no binding
ELISA OD [2]: 0.92 OD

B2: Feline 11E12 1.1 (antibody, V domains shown)
VH: QVLLVQSGAEVKKPGASVKIFCKASGYSFTYYDINWLRQAPEQGLEWMGWIFPGDGGTKYNETFKGRLTLTADTSTNTVYMELSSLRSADTAMYYCARGGTSVIRDAMDYWGQGALVTVSS
VL: EIQMTQSPSSLSASPGDRVTITCRASESVDNYGISFMHWYQQKPGKVPKLLIYRASNLESGVPSRFSGSGSGTDFTLTISSLEPEDAATYYCQQSNKDPLTFGQGT
notes: Variable chains were subcloned into plasmids with 'the respective feline heavy or kappa constant region'; Made in HEK 293 cells; also called Felinized 11E12 1.1; felinized 11E12
Kd [3]: 22200 pM
koff [3]: 0.000444 s⁻¹
kon [3]: 20000 M⁻¹ s⁻¹
koff [4]: 0.000141 s⁻¹
kon [4]: 185000 M⁻¹ s⁻¹
potency against feline IL-31 in the feline FCWF assay (pSTAT3) [5]: ~2 fold

B3: mouse:feline 15H05 chimera (antibody)
heavy: QVQLQQSAAELARPGASVKMSCKTSGYTFTSYTIHWIKQRPGQGLEWIGNINPTSGYTENNQRFKDKTTLTVDRSSNTAYLQLHSLTSEDSAVYFCARWGFKYDGEWSFDVWGAGTTVTVSSASTTAPSVFPLAPSCGTTSGATVALACLVLGYFPEPVTVSWNSGALTSGVHTFPAVLQASGLYSLSSMVTVPSSRWLSDTFTCNVAHPPSNTKVDKTVRKTDHPPGPKPCDCPKCPPPEAAGAPSIFIFPPKPKDTLSISRTPEVTCLVVDLGPDDSDVQITWFVDNTQVYTAKTSPREEQFNSTYRVVSVLPILHQDWLKGKEFKCKVNSKSLPSPIERTISKAKGQPHEPQVYVLPPAQEELSRNKVSVTCLIKSFHPPDIAVEWEITGQPEPENNYRTTPPQLDSDGTYFVYSKLSVDRSHWQRGNTYTCSVSHEALHSHHTQKSLTQSPGK
light: DIQMNQSPSSLSASLGDTITVTCRASQGISIWLSWYQQKPGNIPKVLINKASNLHIGVPPRFSGSGSGTHFTLTITSLQPEDIATYYCLQSQTYPLTFGGGTKLEINRSDAQPSVFLFQPSLDELHTGSASIVCILNDFYPKEVNVKWKVDGVVQNKGIQESTTEQNSKDSTYSLSSTLTMSSTEYQSHEKFSCEVTHKSLASTLVKSFQRSECQRE
notes: Mouse variable regions on feline IgG constant regions; made in HEK 293 cells; also called 15H05 mouse feline chimera
IC50 against canine IL-31 (pSTAT3; cell type not stated for this pair of values) [6]: 28.6 µg/ml
IC50, inhibition of feline IL-31-induced STAT3 phosphorylation, canine DH82 cells [7]: 5.59 µg/mL
IC50, inhibition of feline IL-31-induced STAT3 phosphorylation, feline FCWF4 cells [7]: 3.25 µg/mL
Kd [4]: 12.9 pM
koff [4]: 1.62e-07 s⁻¹
kon [4]: 12600 M⁻¹ s⁻¹
IC50 against feline IL-31 induced pSTAT3 signaling in feline FCWF4 cells, relative to the mouse:feline 11E12 chimera [5]: ~2 fold

B4: ZIL11 (recombinant fully canine antibody) (antibody, V domains shown)
VH: EVQLVESGGDLVKPAGSLRLSCVASGFTFRTYVMNWVRQAPGKGLQWVASINGGGSSPTYADAVRGRFTVSRDNAQNSLFLQMNSLRAEDTAVYFCVVSMVGPFDYWGQGTLVTVSS
VL: SSVLTQPPSVSVSLGQTATISCSGESLSNYYAQWFQQKAGQAPVLVIYKDTERPSGIPDRFSGSSSGNTHTLTISGARAEDEADYYCESAVSSDTIVFGGGTHLTVL
notes: also called CAN-ZIL11; copies: 2 + 2
binding result [1]: no binding
binding result (human IL-31): no binding
ELISA OD [2]: 0.33 OD

B5: ZTS-927 (antibody)
heavy: QVLLVQSGAEVRTPGASVKIFCKASGYSFTSYTIHWLRQAPAQGLEWMGNINPTSGYTENNQRFKDRLTLTADTSTNTAYMELSSLRSADTAMYYCARWGFKYDGEWSFDVWGAGTTVTVSSASTTAPSVFPLAPSCGTTSGATVALACLVLGYFPEPVTVSWNSGALTSGVHTFPAVLQASGLYSLSSMVTVPSSRWLSDTFTCNVAHPPSNTKVDKTVRKTDHPPGPKPCDCPKCPPPEMLGGPSIFIFPPKPKDTLSISRTPEVTCLVVDLGPDDSDVQITWFVDNTQVYTAKTSPREEQFNSTYRVVSVLPILHQDWLKGKEFKCKVNSKSLPSPIERTISKAKGQPHEPQVYVLPPAQEELSRNKVSVTCLIKSFHPPDIAVEWEITGQPEPENNYRTTPPQLDSDGTYFVYSKLSVDRSHWQRGNTYTCSVSHEALHSHHTQKSLTQSPGK
light: EIQMTQSPSSLSASPGDRVTITCRASQGISIWLSWYQQKPGNIPKVLINKASNLHIGVPSRFSGSGSGTDFTLTISSLEPEDAATYYCLQSQTYPLTFGGGTKLEIKRSDAQPSVFLFQPSLDELHTGSASIVCILNDFYPKEVNVKWKVDGVVQNKGIQESTTEQNSKDSTYSLSSTLTMSSTEYQSHEKFSCEVTHKSLASTLVKSFQRSECQRE
notes: Felinized 15H05 from a single GS plasmid
Kd [3]: 614 pM
koff [3]: 2.3e-05 s⁻¹
kon [3]: 37400 M⁻¹ s⁻¹
IC50, inhibition of canine IL-31-induced STAT3 phosphorylation, canine DH82 cells [6]: 23.2 µg/mL
IC50, inhibition of canine IL-31-induced STAT3 phosphorylation, feline FCWF4 cells [6]: 39.6 µg/mL
IC50, inhibition of feline IL-31-induced STAT3 phosphorylation, canine DH82 cells [7]: 1.57 µg/mL
IC50, inhibition of feline IL-31-induced STAT3 phosphorylation, feline FCWF4 cells [7]: 5.26 µg/mL

B6: ZIL8 (recombinant fully canine antibody) (antibody, V domains shown)
VH: EVQLVESGGDLVKPAGSLRLSCVASGFTFSDYAMSWVRQAPGRGLQWVAGIDSVGSGTSYADAVKGRFTISRDDAKNTLYLQMFNLRAEDTAIYYCASGFPGSFEHWGQGTLVTVSS
VL: QSVLTQPASVSGSLGQKVTISCTGSSSNIGSGYVGWYQQLPGTGPRTLIYYNSDRPSGVPDRFSGSRSGTTATLTISGLQAEDEADYYCSVYDRTFNAVFGGGTHLTVL
notes: also called CAN-ZIL8; copies: 2 + 2
binding result [1]: no binding
binding result (human IL-31): no binding

B7: ZIL9 (recombinant fully canine antibody) (antibody, V domains shown)
VH: EVQLVESGGDLVKPPGSLRLSCVASGFTFSSYDMTWVRQAPGKGLQWVADVNSGGTGTAYAVAVKGRFTISRDNAKKTLYLQMNSLRAEDTAVYYCAKLGVRDGLSVWGQGTLVTVSS
VL: SSVLTQPPSVSVSLGQTATISCSGESLNEYYTQWFQQKAGQAPVLVIYRDTERPSGIPDRFSGSSSGNTHTLTISGARAEDEADYYCESAVDTGTLVFGGGTHLAVLR
ELISA OD [2]: 0.73 OD

B8: ZIL171 (recombinant fully canine antibody) (antibody, V domains shown)
VH: EVQLVESGGDLVKPAGSLRLSCVASGFTFRTYVMNWVRQAPGKGLQWVASINGGGSSPTYADAVRGRFTVSRDNAQNSLFLQMNSLRAEDTAIYFCVVSMVGPFDYWGHGTLVTVSS
VL: SSVLTQPPSVSVSLGQTATISCSGKSLSYYYAQWFQQKAGQAPVLVIYKDTERPSGIPDRFSGSSSGNTHTLTISGARAEDEADYYCESAVSSDTIVFGGGTHLTVLR
notes: also called CAN-ZIL171
binding result [1]: no binding

B9: ZIL1 (recombinant fully canine antibody) (antibody, V domains shown)
VH: EVQLVESGGDLVKPGGSLRLSCVASGFTFSSYGMSWVRQAPGKGLQWVAHINSGGSSTYYADAVKGRFTISRDNAKNTLYLQMNSLRAEDTAVYYCVEVYTTLAAFWTDNFDYWGQGTLVTVSS
VL: QSVLTQPTSVSGSLGQRVTISCSGSTNNIGILAATWYQQLPGKAPKVLVYSDGNRPSGVPDRFSGSKSGNSATLTITGLQAEDEADYYCQSFDTTLDAYVFGSGTQLTVLR
ELISA OD [2]: 0.92 OD
